Among the data in paper PMC2637432 are lowest Fractalkine concentration that blocked migration of US28-expressing SMC induced by 40 ng/ml RANTES (competition migration assay) values, retold here.

This assay deals with human cytomegalovirus (HCMV)-encoded chemokine receptor US28, HA-tagged (human cytomegalovirus (HCMV)) (UniProt P69332).
UniProt P69332, sequence (P69332 whole entry): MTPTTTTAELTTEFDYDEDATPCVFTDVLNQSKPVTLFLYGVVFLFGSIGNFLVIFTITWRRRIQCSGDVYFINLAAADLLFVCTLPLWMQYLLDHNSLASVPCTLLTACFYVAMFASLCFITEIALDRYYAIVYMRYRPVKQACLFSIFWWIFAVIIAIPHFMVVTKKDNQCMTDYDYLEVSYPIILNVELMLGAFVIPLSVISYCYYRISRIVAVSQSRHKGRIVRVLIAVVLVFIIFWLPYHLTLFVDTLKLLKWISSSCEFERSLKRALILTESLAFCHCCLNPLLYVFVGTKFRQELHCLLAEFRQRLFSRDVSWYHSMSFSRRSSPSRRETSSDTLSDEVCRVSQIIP

As to “recombinant human Fractalkine (from UniProt P78423 25-341) (ligand)”, the lowest Fractalkine concentration that blocked migration of US28-expressing SMC induced by 40 ng/ml RANTES (competition migration assay) came out at 10 ng/mL.
